Experimental data published in US20130184442A1.
pKd: −log10 of the molar value.

Experiments:
Test in all cases: SPR (Biacore 2000), antibody immobilized on CM5 chip, Langmuir 1:1 model
[1] = molecular target: anti FITC-BSA mouse IgG2a (monoclonal, BioInvent International AB)
[2] = molecular target: polyclonal rabbit IgG
[3] = molecular target: anti FITC-BSA human IgG1 (monoclonal, BioInvent International AB)

pKd [1]: 6.26 | pKd [2]: 7.22 | pKd [3]: 7.70
Substance: Zwt (recombinantly produced parental Z domain) (designed binder)
